Data published in article PMC4599002, “The Potato Nucleotide-binding Leucine-rich Repeat (NLR) Immune Receptor Rx1 Is a Pathogen-dependent DNA-deforming Protein” (The Journal of Biological Chemistry, 2015).
Substitutions are numbered along the chain they refer to.

Tests used:
Rx1(1–489)WT = target: T1, Rx1(1–489)WT (Solanum tuberosum, UniProt Q9XGF5); assay: time-resolved FRET of DNA bending; format: biochemical; details: 20-bp end-labelled dsDNA (50 nM), 1.5 uM protein, 60 mM NaCl, room temperature; activator of DNA bending, P-loop dependent
T1 construct: gene rx; CC-NB-ARC region, residues 1-489, LRR domain absent; pET32c, hexahistidine tag
T1 sequence (Q9XGF5 1-489): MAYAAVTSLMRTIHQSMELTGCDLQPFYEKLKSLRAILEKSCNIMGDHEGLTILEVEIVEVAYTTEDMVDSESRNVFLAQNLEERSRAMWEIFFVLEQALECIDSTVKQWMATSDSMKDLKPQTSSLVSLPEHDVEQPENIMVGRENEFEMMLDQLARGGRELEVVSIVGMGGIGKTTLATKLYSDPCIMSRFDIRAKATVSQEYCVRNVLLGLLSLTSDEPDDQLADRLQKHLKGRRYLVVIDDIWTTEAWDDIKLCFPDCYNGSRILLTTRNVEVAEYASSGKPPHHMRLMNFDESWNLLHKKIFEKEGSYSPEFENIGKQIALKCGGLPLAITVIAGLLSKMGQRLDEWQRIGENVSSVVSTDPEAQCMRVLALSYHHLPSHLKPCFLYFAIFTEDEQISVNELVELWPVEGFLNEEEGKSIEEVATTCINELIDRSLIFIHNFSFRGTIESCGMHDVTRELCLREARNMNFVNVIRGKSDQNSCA

Rx1(1-489) K176R = target: T2, Rx1(1-489) K176R (potato (introgressed from Solanum …, UniProt Q9XGF5 1-489, K176R)); assay: time-resolved FRET (bending); no nucleotide; bends similarly to WT; EMSA: 0.15 nM 32P nucleic acid, 20 mM Tris-HCl pH 8.0, 60 mM NaCl, 2 mM EDTA, 1 mM DTT, 10% glycerol, 0.1 mg/ml BSA, 20 min on ice; FRET: 1.5 uM protein, 50 nM; details: protein: recombinant; tags: His6 (pET32c); label: fluorescein donor and tetramethylrhodamine acceptor, end labels; blunt
T2 sequence: T1 sequence (Q9XGF5 1-489) with K176R

[1] = target: T3, Rx1(1-489) WT (CC-NB-ARC) (potato (introgressed from Solanum …, UniProt Q9XGF5 1-489)); assay: time-resolved FRET (bending); no nucleotide; bend angle 42 degrees; EMSA: 0.15 nM 32P nucleic acid, 20 mM Tris-HCl pH 8.0, 60 mM NaCl, 2 mM EDTA, 1 mM DTT, 10% glycerol, 0.1 mg/ml BSA, 20 min on ice; FRET: 1.5 uM protein, 50 nM; details: protein: recombinant; tags: His6 (pET32c); label: fluorescein donor and tetramethylrhodamine acceptor, end labels; blunt
T3 sequence: T1 sequence (Q9XGF5 1-489)

[2] = target: T3, Rx1(1-489) WT (CC-NB-ARC); assay: EMSA; affinity similar to dsDNA; Kd in Table 1 not in material; EMSA: 0.15 nM 32P nucleic acid, 20 mM Tris-HCl pH 8.0, 60 mM NaCl, 2 mM EDTA, 1 mM DTT, 10% glycerol, 0.1 mg/ml BSA, 20 min on ice; FRET: 1.5 uM protein, 50 nM; details: protein: recombinant; tags: His6 (pET32c); label: 32P 5' end; single strand
[3] = target: T3, Rx1(1-489) WT (CC-NB-ARC); assay: EMSA; apparent Kd in Table 1 (values not in material); text: submicromolar; EMSA: 0.15 nM 32P nucleic acid, 20 mM Tris-HCl pH 8.0, 60 mM NaCl, 2 mM EDTA, 1 mM DTT, 10% glycerol, 0.1 mg/ml BSA, 20 min on ice; FRET: 1.5 uM protein, 50 nM; details: protein: recombinant; tags: His6 (pET32c); label: 32P 5' end; blunt
[4] = target: T3, Rx1(1-489) WT (CC-NB-ARC); assay: EMSA; higher affinity than F12-ds/ss; EMSA: 0.15 nM 32P nucleic acid, 20 mM Tris-HCl pH 8.0, 60 mM NaCl, 2 mM EDTA, 1 mM DTT, 10% glycerol, 0.1 mg/ml BSA, 20 min on ice; FRET: 1.5 uM protein, 50 nM; details: protein: recombinant; tags: His6 (pET32c); label: 32P 5' end of strand 1; fork 1:2, two single-stranded arms
[5] = target: T3, Rx1(1-489) WT (CC-NB-ARC); assay: EMSA; higher affinity than dsDNA or ssRNA; Kd in Table 1 not in material; EMSA: 0.15 nM 32P nucleic acid, 20 mM Tris-HCl pH 8.0, 60 mM NaCl, 2 mM EDTA, 1 mM DTT, 10% glycerol, 0.1 mg/ml BSA, 20 min on ice; FRET: 1.5 uM protein, 50 nM; details: protein: recombinant; tags: His6 (pET32c); label: 32P 5' end; single strand
Orc1-1;Orc1-3 = target: T4, Orc1-1;Orc1-3 (Sulfolobus solfataricus;Sulfolobus …, UniProt Q980N4;Q97WM8 1-397;1-394, |); assay: P1 nuclease sensitivity; sensitivity indistinguishable from Rx1(1-489)WT; EMSA: 0.15 nM 32P nucleic acid, 20 mM Tris-HCl pH 8.0, 60 mM NaCl, 2 mM EDTA, 1 mM DTT, 10% glycerol, 0.1 mg/ml BSA, 20 min on ice; FRET: 1.5 uM protein, 50 nM; details: protein: recombinant;recombinant; tags: ;; copies: 1;1; label: 32P 5' end of strand 1; blunt
T4 sequence 1: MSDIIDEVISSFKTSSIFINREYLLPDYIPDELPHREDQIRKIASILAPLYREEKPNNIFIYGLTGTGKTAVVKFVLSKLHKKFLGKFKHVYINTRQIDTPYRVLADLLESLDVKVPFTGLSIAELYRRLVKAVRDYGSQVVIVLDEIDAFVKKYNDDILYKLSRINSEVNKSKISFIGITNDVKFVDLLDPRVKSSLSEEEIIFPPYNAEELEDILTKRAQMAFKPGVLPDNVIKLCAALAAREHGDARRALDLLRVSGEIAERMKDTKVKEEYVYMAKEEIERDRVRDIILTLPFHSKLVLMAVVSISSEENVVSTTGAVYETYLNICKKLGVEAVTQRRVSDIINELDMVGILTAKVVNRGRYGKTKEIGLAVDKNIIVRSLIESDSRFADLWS
T4 sequence 2: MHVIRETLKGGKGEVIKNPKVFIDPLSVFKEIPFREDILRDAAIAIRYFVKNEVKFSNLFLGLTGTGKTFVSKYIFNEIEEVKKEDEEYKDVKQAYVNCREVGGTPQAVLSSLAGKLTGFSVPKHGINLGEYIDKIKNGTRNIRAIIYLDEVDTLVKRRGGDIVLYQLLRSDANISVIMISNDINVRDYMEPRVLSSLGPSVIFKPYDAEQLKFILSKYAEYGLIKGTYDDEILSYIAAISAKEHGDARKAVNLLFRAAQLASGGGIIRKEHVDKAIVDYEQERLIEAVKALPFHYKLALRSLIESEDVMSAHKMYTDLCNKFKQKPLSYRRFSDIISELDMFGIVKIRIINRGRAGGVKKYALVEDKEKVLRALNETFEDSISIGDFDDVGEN

[6] = target: T3, Rx1(1-489) WT (CC-NB-ARC); assay: P1 nuclease sensitivity; no nucleotide; local melting; EMSA: 0.15 nM 32P nucleic acid, 20 mM Tris-HCl pH 8.0, 60 mM NaCl, 2 mM EDTA, 1 mM DTT, 10% glycerol, 0.1 mg/ml BSA, 20 min on ice; FRET: 1.5 uM protein, 50 nM; details: protein: recombinant; tags: His6 (pET32c); label: 32P 5' end of strand 1; blunt

In the case of `Nc1ncnc2c1ncn2[C@@H]1O[C@H](COP(=O)(O)OP(=O)(O)OP(=O)(O)O)[C@@H](O)[C@H]1O` [ATP], the “time-resolved FRET of DNA bending” value (Rx1(1–489)WT) is reported as “Notably ATP, but not ADP, strongly increased the contribution of the 129-ps lifetime”.

B1: 20-bp FRET duplex (dsDNA)
DNA 1: TGGGTCAACGTGGGCAAAGA
DNA 2: TCTTTGCCCACGTTGACCCA
B1: binds (Rx1(1-489) K176R); binds [1].

UGGGUCAACGUGGGCAAAGAUGUCCUAGCAAUGUAAUCGUCUAUGACGUU (ssRNA) [SS1 ssRNA]: binds [2].

B2: SS1/SS2 dsDNA (dsDNA)
DNA 1: TGGGTCAACGTGGGCAAAGATGTCCTAGCAATGTAATCGTCTATGACGTT
DNA 2: AACGTCATAGACGATTACATTGCTAGGACATCTTTGCCCACGTTGACCCA
B2: binds [3].

B3: F12-ss/ss (structured_DNA)
DNA 1: GACGCTGCCGAATTCTGGCTTGCTAGGACATCTTTGCCCACGTTGACCC
DNA 2: B2 DNA 1
B3: binds [4].

TGGGTCAACGTGGGCAAAGATGTCCTAGCAATGTAATCGTCTATGACGTT (ssDNA) [SS1 ssDNA]: binds [5].

B4: C3/mORB dual site of oriC2 (dsDNA)
DNA 1: CTCAATACAATTGTCTCTGTGTAAATTTCCTACGTTTCATCTGAAAATCTAGCTATTAGAGCTTGGTTTA
DNA 2: TAAACCAAGCTCTAATAGCTAGATTTTCAGATGAAACGTAGGAAATTTACACAGAGACAATTGTATTGAG
B4: binds (Orc1-1;Orc1-3); binds [6].
